Test results taken from article PMC3663845.

Biological target: active (cleaved) presenilin of γ-secretase, marked at the active site by the inhibitor GTB (mouse (endogenous in primary hippocampal neurons))
Test: proximity ligation; in situ PLA with 200 nM GTB (photoreactive biotinylated γ-secretase inhibitor, UV-irradiated, probed with streptavidin-oligonucleotide PLUS) in place of the PS antibody and mouse nicastrin-CT antibody (anti-mouse MINUS probe); fixed, 0.4% CHAPSO-permeabilised mouse primary hippocampal neurons; 10 µM L-685,458 as competitor of GTB in the control

- PLA signals per cell: 214 signals/cell
- fold increase of PLA signals over the sum of the negative controls (first way of calculating): 4.5 fold
- fold increase of PLA signals over the sum of the negative controls (second way of calculating): 4.5 fold
Substance: nicastrin (from UniProt P57716 28-708) (natural protein)
